One experiment addresses T1, bsa (Bos taurus (bovine), UniProt P02769).
T1 construct: also called bovine serum albumin
Put plainly: ELISA: D1 IgE Fab on wells with bovine serum albumin, AFOS-conjugated goat anti-human kappa antibody, A405 after 20 min. (In general: An ELISA detects its analyte on a solid surface through an enzyme-linked reagent.)

Experiment [1] concerns the target T2, native bovine milk β-lactoglobulin (nBLG, Sigma) (bovine, UniProt P02754 17-178, biotinylated where immobilised on streptavidin wells or chips; the soluble competitor and the crystallised protein are not biotinylated).
T2 construct: also called native BLG; β-lactoglobulin AB dimer
T2 sequence: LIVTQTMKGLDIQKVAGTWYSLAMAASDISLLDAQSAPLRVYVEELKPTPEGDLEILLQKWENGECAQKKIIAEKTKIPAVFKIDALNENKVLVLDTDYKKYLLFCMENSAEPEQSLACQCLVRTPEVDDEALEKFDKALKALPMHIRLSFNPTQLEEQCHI
As to the kind of experiment: BIAcore SPR, biotinylated nBLG on streptavidin chip, D1 IgE Fab as analyte (1.1-138.9 nM). (SPR reads the build-up and loss of mass on a sensor chip optically.)

In experiment [2] the target is T3, rBLG-His6 (recombinant bovine β-lactoglobulin with C-terminal His6 tag) (bovine, UniProt P02754 17-178, biotinylated with Sulfo-NHS-LC-biotin (2 mol biotin : 1 mol protein) for immobilisation).
T3 construct: It was secreted to the E. coli periplasm through a pelB signal that is not part of the entry; also called recombinant BLG
T3 chain: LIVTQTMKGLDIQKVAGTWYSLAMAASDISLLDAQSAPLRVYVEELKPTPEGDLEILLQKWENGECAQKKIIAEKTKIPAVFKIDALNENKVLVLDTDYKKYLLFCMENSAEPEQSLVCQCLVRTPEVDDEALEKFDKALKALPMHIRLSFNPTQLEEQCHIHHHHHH
Put plainly: BIAcore SPR, biotinylated rBLG-His6 on streptavidin chip, D1 IgE Fab as analyte (1.1-138.9 nM).

In another experiment the target is T4, rBLG-His6 T18Y/E45Y/L57Y (bovine, UniProt P02754 17-178, biotinylated with Sulfo-NHS-LC-biotin (2 mol biotin : 1 mol protein) for immobilisation).
T4 construct: also called Triple mutant; Triple
T4 chain: T3 chain with T18Y, E45Y, L57Y
Put plainly: ELISA: 1 µg biotinylated BLG on streptavidin wells, D1 IgE Fab, AFOS-conjugated goat anti-human kappa antibody, A405 after 20 min.

For another experiment, the target named is T5, rBLG-His6 T18Y (bovine, UniProt P02754 17-178, biotinylated with Sulfo-NHS-LC-biotin (2 mol biotin : 1 mol protein) for immobilisation).
T5 chain: T3 chain with T18Y
As to the kind of experiment: BIAcore SPR, biotinylated rBLG-His6 T18Y on streptavidin chip, D1 IgE Fab as analyte (1.1-138.9 nM).

In experiment [3] the target is T2, native bovine milk β-lactoglobulin …. As to the kind of experiment: competitive ELISA: biotinylated BLG AB dimer on streptavidin wells, KRVG peptide incubated with the immobilised BLG, wells washed or not washed, then D1 IgE Fab (the blocked ligand); AFOS-conjugated goat anti-human kappa antibody, A405.

Where a chain is given by its changes, count along the chain named.

T1 sequence (P02769 25-607 limits assumed): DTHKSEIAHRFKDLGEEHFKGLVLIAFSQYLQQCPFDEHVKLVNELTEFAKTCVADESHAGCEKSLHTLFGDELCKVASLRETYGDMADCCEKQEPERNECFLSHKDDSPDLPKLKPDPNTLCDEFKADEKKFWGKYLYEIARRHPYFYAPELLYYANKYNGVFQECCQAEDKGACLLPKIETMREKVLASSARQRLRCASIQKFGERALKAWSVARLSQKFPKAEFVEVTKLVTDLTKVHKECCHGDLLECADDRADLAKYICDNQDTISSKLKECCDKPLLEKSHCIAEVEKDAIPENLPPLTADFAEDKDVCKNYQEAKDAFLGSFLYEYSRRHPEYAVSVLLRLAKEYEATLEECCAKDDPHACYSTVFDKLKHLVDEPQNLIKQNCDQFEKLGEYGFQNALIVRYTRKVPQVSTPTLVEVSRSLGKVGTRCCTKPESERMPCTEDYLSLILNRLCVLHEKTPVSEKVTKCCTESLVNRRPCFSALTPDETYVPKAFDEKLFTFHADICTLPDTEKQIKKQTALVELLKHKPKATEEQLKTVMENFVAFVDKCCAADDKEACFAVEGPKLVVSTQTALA

B1: D1 IgE Fab (human anti-β-lactoglobulin Fab fragment with human IgG1 subtype, derived from the D1 scFv of a human IgE scFv phage library) (Fab, V domains shown)
VH: QVSLRESGGGLVQPGRSLRLSCTASGFTFRHHGMTWVRQAPGKGLEWVASLSGSGTKTHFADSVKGRFTISRDNSNNTLYLQMDNVRDEDTAIYYCAKAKRVGATGYFDLWGRGTLVTVSS
VL: DIVMTQSPSSLSASVGDRVTITCRASQGISSRLAWYQQKPGKAPKLLIYAASSLQSGVPSRFSGSGSGTEFTLTISSLQPEDFATYYCQQYHSYPWTFGQGTKVEIKR
notes: it was made in E. coli RV308 and purified on nickel; also called D1/Fab; Fab/D1
As to B1, the binding result in the experiment with bsa and in the experiment with rBLG-His6 T18Y/E45Y/L57Y was “no binding (tested: 1:15000 dilution of 1.6 mg/ml)” in each case. The values for the Ka (in experiment [1]; in experiment [2]; in the experiment with rBLG-His6 T18Y) were 3.7e+08 M⁻¹, 1.2e+08 M⁻¹ and 1.6e+06 M⁻¹, respectively. Besides, the Kd (in general, a measure of binding affinity in units of concentration) in experiment [1] came to 2.7 nM; in experiment [2], 8.5 nM; with rBLG-His6 T18Y it was 610 nM. The koff (in general, the rate constant with which the complex falls apart) in experiment [1] came to 0.0048 s⁻¹; in experiment [2], 0.0082 s⁻¹; in the experiment with rBLG-His6 T18Y it was 0.082 s⁻¹. For the same molecule, the kon (in general, the rate constant with which the complex forms) came out at 1.8e+06 M⁻¹ s⁻¹ in experiment [1], 961000 M⁻¹ s⁻¹ in experiment [2] and 130000 M⁻¹ s⁻¹ with rBLG-His6 T18Y.
Consider KRVG [peptide KRVG (from the HCDR3 of D1 IgE Fab)], for which the binding result in experiment [3] is on record as “binds”.

Source of the values: patent US20100086552A1 (VALTION TEKNILLINEN TUTKIMUSKESKUS, published 2010).
